Experimental data taken from patent US20220125770A1, “COMBINATION THERAPY OF ALK-POSITIVE NEOPLASIA” (Academisch Medisch Centrum, priority 2019, published 2022).

B1: TRAIL: TNF-related apoptosis-inducing ligand; recombinant soluble human TRAIL (Peprotech; His-tagged for in vivo); also doxycycline-induced transgene in SK-N-AS-TRAIL cells (protein, UniProt P50591 39-281, looked up)
extracellular domain: TNELKQMQDKYSKSGIACFLKEDDSYWDPNDEESMNSPCWQVKWQLRQLVRKMILRTSEETISTVQEKQQNISPLVRERGPQRVAAHITGTRGRSNTLSSPNSKNEKALGRKINSWESSRSGHSFLSNLHLRNGELVIHEKGFYYIYSQTYFRFQEEIKENTKNDKQMVQYIYKYTSYPDPILLMKSARNSCWSKDAEYGLYSIYQGGIFELKENDRIFVSVTNEHLIDMDHEASFFGAFLVG
modifications: extracellular domain His tag
notes: TNF-related apoptosis-inducing ligand; recombinant soluble human TRAIL (Peprotech; His-tagged for in vivo); also doxycycline-induced transgene in SK-N-AS-TRAIL cells

Key:
[1] = test system: MES-type neuroblastoma cells; test: Cell viability (MTT) assay, MES-type cells of isogenic cell line pairs; format: cell-based, human
Experimental: […] Seeding densities were optimized for each cell line so that the control, non-treated cells would reach 70-80% confluence by the end of the experiment. […] Metabolic activity was measured by 3-(4,5-dimethylthiazol-2-yl)-2,5-diphenyltetrazolium bromide (MTT) assay, according to the manufacturer's instructions with minor modifications. Sextuple or triplicate measurements were used for each experimental condition. Two-sided t-tests assuming equal variance were used to determine significance. Experiments were repeated at least twice.

[2] = test system: ADRN-type neuroblastoma cells; test: Cell viability (MTT) assay, ADRN-type cells of isogenic cell line pairs; format: cell-based, human
Experimental: Cells were plated in 96-well plates, one day before the addition of Lorlatinib (HY-12215, MedChemExpress) and/or TRAIL (Peprotech) to the culture medium. Seeding densities were optimized for each cell line so that the control, non-treated cells would reach 70-80% confluence by the end of the experiment. […] Metabolic activity was measured by 3-(4,5-dimethylthiazol-2-yl)-2,5-diphenyltetrazolium bromide (MTT) assay, according to the manufacturer's instructions with minor modifications. Sextuple or triplicate measurements were used for each experimental condition. Two-sided t-tests assuming equal variance were used to determine significance. Experiments were repeated at least twice.

[3] = test system: mixed culture of SH-SY5Y-GFP (ADRN-type) and SH-EP2-RFP (MES-type) cells; test: Flow cytometry of mixed cultures of SH-EP2-RFP and SH-SY5Y-GFP cells; format: cell-based, human; conditions: 120 hours, relative to DMSO control
Experimental: GFP and RFP labelled cells were plated at given densities (see Figure description), collected by trypsin treatment, washed twice with FACS buffer and analysed using flow cytometer (BD biosciences) and BD Accuri C6 software.

[4] = test system: SK-N-SH (ALK-F1174L) and NBL-W (ALK-R1275L) cell lines; test: Cell viability (MTT) assay, cell lines with heterogeneous MES and ADRN composition; format: cell-based, human; conditions: Lorlatinib-only or TRAIL-only (100 ng/ml), 120 hours
Experimental: Seeding densities were optimized for each cell line so that the control, non-treated cells would reach 70-80% confluence by the end of the experiment. […] Metabolic activity was measured by 3-(4,5-dimethylthiazol-2-yl)-2,5-diphenyltetrazolium bromide (MTT) assay, according to the manufacturer's instructions with minor modifications. Sextuple or triplicate measurements were used for each experimental condition. Two-sided t-tests assuming equal variance were used to determine significance. Experiments were repeated at least twice.

[5] = test system: SK-N-AS-TRAIL xenografts; test: SK-N-AS-TRAIL xenograft tumour growth; format: in vivo, NMRI-Foxn1nu/nu mice; conditions: TRAIL induced by doxycycline, established tumours 200 mm^3, five-week doxycycline stimulation
Experimental: For the SK-N-AS-TRAIL xenograft experiments, 1×10^6 cells were suspended in 200 μl of a 50% Matrigel solution in PBS and subcutaneously injected in NMRI-Foxn1nu/nu mice. After tumour outgrowth to around 200-250 mm^3, mice were randomized to control or treatment groups. The DOX group was provided drinking water with 200 μg/ml doxycycline. DOX-containing water was refreshed weekly. Control mice received regular drinking water ad lib. Mice were screened regularly to follow tumour formation and were sacrificed before tumour reached 1500 mm^3. All animal experiments were conducted under the institutional guidelines and according to the law and approved in DAG155 by the AMC animal ethics committee.

[6] = test system: IMR32 cells (ADRN-type); test: 3D spheroid co-culture of SK-N-AS-TRAIL cells with IMR32-GFP cells; format: cell-based, human; conditions: doxycycline-induced TRAIL expression, 48 hours, 3D model
Experimental: (§1) Spheroid assays were performed as described^28. A suspension of 10000 cells of 3:1 SKNAS-TRAIL:SH-EP2-GFP or 3:1 SKNAS-TRAIL:IMR32-GFP was added in triplicate to 96 well round bottom suspension plates. After 48 hours incubation with 0 or 300 ng/ml doxycycline bright-field and fluorescent images of the 3D cultures were taken.

[7] = test system: SH-EP2 cells (MES-type); test: 3D spheroid co-culture of SK-N-AS-TRAIL cells with SH-EP2-GFP cells; format: cell-based, human; conditions: doxycycline-induced TRAIL expression, 48 hours, 3D model
Experimental: as §1

[8] = test system: SK-N-AS-TRAIL cells; test: Apoptosis of SK-N-AS-TRAIL cells after doxycycline-induced TRAIL expression in vitro; format: cell-based, human; conditions: doxycycline-induced membrane TRAIL expression, 300 ng/ml doxycycline
Experimental: The SK-N-AS cell line with inducible TRAIL expression was generated by cloning human TRAIL from pUNO1-hTRAILa vector (InvivoGen) into the lentiviral pINDUCER (pIND) system (Invitrogen). Expression of the TRAIL transgene was induced by the addition of doxycycline to the culture medium at a final concentration of 300 ng/ml. SH-SY5Y-GFP, IMR-GFP and SH-EP2-GFP were generated by lentiviral (pLenti, Invitrogen) transduction of turboGFP (SHC003, Sigma) and SH-EP2-RFP by lentiviral (pLenti, invitrogen) transduction of near-infrared fluorescent protein NirFP (Evrogen). […]
To determine the effect of doxycycline-induced TRAIL expression on SK-N-AS cells, 150.000 SK-N-AS-TRAIL cells were seeded in triplicate in 6 well/plates in 2 ml medium supplemented with or without 300 ng/ml doxycycline. Cell number was determined using a coulter counter (Beckman) at every 3rd or 4th day and cells were reseeded at similar cell number as at the start until the end of the experiment. The proliferation factor was defined as the ratio of the cells counted and the cells plated.
Sub-G1 fractions were determined after 72 hours treatment with 300 ng/ml doxycycline. […] After 1 hour incubation, DNA content of the nuclei was analysed using a Accuri C6 flow cytometer (BD biosciences). The cell cycle distribution and apoptotic sub G1 fraction was determined using BD Accuri C6 software.

[9] = test system: SH-SY5Y xenografts; test: SH-SY5Y xenograft tumour growth; format: in vivo, NMRI-Foxn1nu/nu mice; conditions: TRAIL 150 μg/day I.P. 4 weeks; Lorlatinib 5 mg/kg twice a day oral 6 weeks; or both
Experimental: For tumour growth assays, 5×10^6 SH-SY5Y cells were suspended in 200 μl of a 50% Matrigel (BD, 354234) solution in PBS and subcutaneously injected in NMRI-Foxn1nu/nu mice (NKI; Janvier). After tumour outgrowth to around 200-250 mm^3, mice were randomized to control or treatment groups. The control group received 150 μl PBS daily intraperitoneally (I.P.) for 4 weeks (day 1-day 28). The TRAIL group received 150 μg/day through I.P. for 4 weeks (day 1-day 28). The Lorlatinib group received 5 mg/kg twice a day through oral gavage for 6 weeks (day 1-day 42) and 4 weeks (day 29-day 56) of PBS (150 μl/day I.P.). The combination group received Lorlatinib twice a day for 6 weeks (day 1-day 42) and 4 weeks TRAIL (day 29-day 56). Tumour size was measured three times a week. Mice were sacrificed at the humane endpoint (tumor size >1500 mm^3), the tumours were isolated and divided in two parts. One tumour piece was fresh frozen in liquid nitrogen and RNA was isolated using Trizol reagent. The other tumour piece was fixed in 4% (w/v) buffered formaldehyde (Klinipath) and embedded in paraffin for histological analyses. In vivo experiments were conducted at the NKI therapeutical intervention unit after ethical approval from the animal experiments committee of the NKI was obtained (AvD:30100 2015 407 appendix 1; WP8156).

Row | Molecule | Sensitivity to Alectinib (cell survival) ([1]; isogenic pair with mutant ALK, MES-type cells, 120 hours) | Sensitivity to Alectinib (cell survival) ([2]; isogenic pair with mutant ALK, ADRN-type cells, 120 hours) | Sensitivity to TRAIL (cell viability) ([1]; four isogenic pairs, MES cells, 72 hours of TRAIL treatment) | Effect on ADRN population (SH-SY5Y-GFP) ([3]; Lorlatinib 5 μM or TRAIL 100 ng/ml) | Effect on MES population (SH-EP2-RFP) ([3]; TRAIL 100 ng/ml) | Cell killing by single-agent treatment [4] | Sensitivity to TRAIL (cell viability) ([2]; four isogenic pairs, ADRN cells, 72 hours of TRAIL treatment) | Tumour response of established tumours [5] | Killing of co-cultured ADRN-type IMR32 cells [6] | Killing of co-cultured MES-type SH-EP2 cells [7] | Apoptosis of SK-N-AS-TRAIL cells [8] | Tumour growth response during treatment [9]
1 | CCc1cc2c(cc1N1CCC(N3CCOCC3)CC1)C(C)(C)c1[nH]c3cc(C#N)ccc3c1C2=O [Alectinib, reference compound] | resistance | preferential killing | – | – | – | – | – | – | – | – | – | –
2 | B1 | – | – | efficiently killed | reduction of the ADRN population | strongly reduced | partly killed | unaffected | complete regression | not | killed | apoptosis of a large proportion of the cells | did not inhibit tumour growth
